The text below walks through data of patent publication US20130174289A1, “Na+/Mg2+ Exchanger” (FBN - Leibnitz-Institut fur Nutztierbiologie, priority 2010, published 2013).

The experiment has as its target T1, SLC41A1 (Homo sapiens, UniProt Q8IVJ1).
T1 construct: split-ubiquitin half (bait fusion); expressed in transfected cells
Briefly: Split-ubiquitin screen for SLC41A1 complex-forming partners. The experiment is classed as binding. The note with it: for occurrence: frequency of occurrence = number of clones that revealed interaction with SLC41A1. From the text:
These SLC41A1 complex-forming partners were screened out by the split-ubiquitin method, which is well known in the art and are listed in detail in Table 1. The ubiquitin-based split protein sensor (USPS) is the method that makes it possible to detect and monitor protein-protein interactions as a function of time, at the natural sites of these interactions in a living cell. Details on the method can be found in Johnsson and Varshaysky, 1994.
In order to shorten the table, multiple entries were deleted and only the frequency of occurrence (Occurrence) is indicated as a number. The singletons listed in Table 2 are the weakest partners. They are organized from the strongest to the weakest.
In the above tables 1 and 2 underlined names indicate highly connected proteins, found in the majority of DUALmembrane SU-YTH screens. Highly connected proteins include chaperones, stress-induced endoplasmatic reticulum proteins, components of the translocon machinery and proteins involved in membrane protein sorting and transport.

T1 sequence (Q8IVJ1 whole entry, the tested form may be a part): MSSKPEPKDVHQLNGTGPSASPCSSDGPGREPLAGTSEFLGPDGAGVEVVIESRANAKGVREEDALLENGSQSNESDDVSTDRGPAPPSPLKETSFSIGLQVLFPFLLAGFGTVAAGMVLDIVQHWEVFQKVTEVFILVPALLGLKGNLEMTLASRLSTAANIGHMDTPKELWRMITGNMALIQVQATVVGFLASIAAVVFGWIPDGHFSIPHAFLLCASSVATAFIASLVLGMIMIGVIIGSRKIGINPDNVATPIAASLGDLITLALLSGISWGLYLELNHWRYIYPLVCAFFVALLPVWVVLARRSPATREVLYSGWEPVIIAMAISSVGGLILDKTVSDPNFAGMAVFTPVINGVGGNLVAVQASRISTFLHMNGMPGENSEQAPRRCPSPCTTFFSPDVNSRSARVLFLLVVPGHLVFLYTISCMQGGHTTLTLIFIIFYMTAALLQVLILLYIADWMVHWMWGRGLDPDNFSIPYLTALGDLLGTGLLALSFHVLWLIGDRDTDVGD

B1: B-cell receptor-associated protein 31 OS = Homo sapiens: SLC41A1 complex-forming partner from split-ubiquitin screen; GN = BCAP31 (protein)
chain: MSLQWTAVATFLYAEVFVVLLLCIPFISPKRWQKIFKSRLVELLVSYGNTFFVVLIVILVLLVIDAVREIRKYDDVTEKVNLQNNPGAMEHFHMKLFRAQRNLYIAGFSLLLSFLLRRLVTLISQQATLLASNEAFKKQAESASEAAKKYMEENDQLKKGAAVDGGKLDVGNAEVKLEEENRSLKADLQKLKDELASTKQKLEKAENQVLAMRKQSEGLTKEYDRLLEEHAKLQAAVDGPMDKKEE
As for B1, the “clones identified with interaction with SLC41A1” value (split-ubiquitin screening) is given as “Ten”.

B2: 3-beta-hydroxysteroid-Delta(8), Delta(7)-isomerase OS = Rattus norvegicus: SLC41A1 complex-forming partner from split-ubiquitin screen; GN = Ebp (protein, UniProt Q9JJ46 2-230, looked up)
3-beta-hydroxysteroid-Delta(8) …: TTNMLPLHPYWPRHLRLDNFVPNDLPTWHILVGLFSFSGVLIVITWLLSSRVSVVPLGTGRRLALCWFAVCTFIHLVIEGWFSFYHEILLEDQAFLSQLWKEYSKGDSRYILSDGFIVCMESVTACLWGPLSLWVVIAFLRHQPFRFVLQLVVSVGQIYGDVLYFLTELRDGFQHGELGHPLYFWFYFVIMNAIWLVIPGILVFDAIKHLTNAQSMLDNKVMKIKSKHN
Regarding B2, the occurrence is 1.

B3: Protein YIPF6 OS = Homo sapiens: SLC41A1 complex-forming partner from split-ubiquitin screen; GN = YIPF6 (protein, UniProt Q96EC8 2-236, looked up)
Protein YIPF6: AEAEESPGDPGTASPRPLFAGLSDISISQDIPVEGEITIPMRSRIREFDSSTLNESVRNTIMRDLKAVGKKFMHVLYPRKSNTLLRDWDLWGPLILCVTLALMLQRDSADSEKDGGPQFAEVFVIVWFGAVTITLNSKLLGGNISFFQSLCVLGYCILPLTVAMLICRLVLLADPGPVNFMVRLFVVIVMFAWSIVASTAFLADSQPPNRRALAVYPVFLFYFVISWMILTFTPQ
Take B3: the occurrence worked out at 2.
